Values quoted from earlier work, collected in publication PMC7532970.
Where two headings read alike, the source gives them in different places.

How the values were obtained:
CBP KIX (Homo sapiens) [1] = target: CBP KIX (Homo sapiens) (UniProt Q92793)
CBP KIX (Homo sapiens) [2] = target: CBP KIX (Homo sapiens) (UniProt Q92793); remark: listed apart in the source
CBP KIX (Homo sapiens) [3] = target: CBP KIX (Homo sapiens) (UniProt Q92793); remark: listed apart in the source

Sequence of CBP KIX (Homo sapiens) (Q92793 584-669): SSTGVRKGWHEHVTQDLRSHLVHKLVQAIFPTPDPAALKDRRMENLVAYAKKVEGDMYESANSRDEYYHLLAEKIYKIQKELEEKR
Sequence of c-myb (P10242 whole entry): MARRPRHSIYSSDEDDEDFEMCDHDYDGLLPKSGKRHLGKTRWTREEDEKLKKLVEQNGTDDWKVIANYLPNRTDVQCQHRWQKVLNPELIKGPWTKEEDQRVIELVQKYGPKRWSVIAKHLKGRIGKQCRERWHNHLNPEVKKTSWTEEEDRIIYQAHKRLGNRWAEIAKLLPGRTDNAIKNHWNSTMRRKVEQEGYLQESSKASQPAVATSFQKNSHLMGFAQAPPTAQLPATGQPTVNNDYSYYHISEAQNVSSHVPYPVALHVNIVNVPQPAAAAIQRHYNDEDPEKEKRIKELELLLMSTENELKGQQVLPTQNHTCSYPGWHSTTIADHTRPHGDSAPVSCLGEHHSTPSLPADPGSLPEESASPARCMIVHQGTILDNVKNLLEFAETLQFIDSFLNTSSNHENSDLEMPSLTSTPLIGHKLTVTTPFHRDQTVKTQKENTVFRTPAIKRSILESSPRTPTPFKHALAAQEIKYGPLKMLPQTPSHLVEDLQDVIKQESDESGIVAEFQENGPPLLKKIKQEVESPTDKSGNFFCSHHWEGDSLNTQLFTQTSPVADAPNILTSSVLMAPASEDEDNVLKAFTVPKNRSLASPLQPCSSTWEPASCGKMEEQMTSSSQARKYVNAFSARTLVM
Sequence of CREB (P16220 whole entry): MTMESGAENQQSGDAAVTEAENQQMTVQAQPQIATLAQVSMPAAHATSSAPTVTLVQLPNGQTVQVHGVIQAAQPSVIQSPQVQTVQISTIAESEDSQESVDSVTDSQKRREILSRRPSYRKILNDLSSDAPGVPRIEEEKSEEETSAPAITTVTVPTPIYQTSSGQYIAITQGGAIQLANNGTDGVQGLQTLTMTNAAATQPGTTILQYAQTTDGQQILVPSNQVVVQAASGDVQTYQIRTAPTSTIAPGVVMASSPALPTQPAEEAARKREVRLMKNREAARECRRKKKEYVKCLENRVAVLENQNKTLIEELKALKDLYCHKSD

In the case of CREB (from UniProt P16220), the Kd (CBP KIX (Homo sapiens) [1]) is given as 0.7 µM.
In the case of c-myb (from UniProt P10242), the Kd (CBP KIX (Homo sapiens) [2]) is given as 15 µM.
For p53 (from UniProt P04637), the Kd (CBP KIX (Homo sapiens) [3]) is given as greater than 90 µM.
